The values below come from US20170267752A1 (Ablynx, published 2017).

For one assay, the target named is biot-hTNFα (human, UniProt P01375 77-233, biotinylated (site not stated)). Nature of the assay: competition ELISA according to Example 5 (assay not given). As to the method: The SHIME model consists of five reactors which sequentially simulate the stomach (acid conditions and pepsin digestion), small intestine (digestive processes) and the 3 regions of the large intestine, i.e. the ascending (“A”), transverse (“T”) and descending colon (“D”) (microbial processes). […] All GI fluids were provided by ProDigest (Technologiepark 4, 9052 Zwijnaarde, Belgium). The anti-TNF Nanobodies were tested for a maximum period of 39 hours in the GI-fluids. After the incubation in the GI-fluids, stability of the Nanobodies was determined via functionality testing in a competition ELISA. The Nanobodies were tested at a fixed concentration of 100 μg/ml at 37° C. in 5 different GI fluids in the SHIMS model. At different time-points samples were taken and stored in the −20° C. with or without the addition of protease inhibitors, according to the schedule in Table 5.1. The samples were transferred to coated ELISA plates and subsequently tested in the competition ELISA. […] After blocking, a fixed concentration of 0.3 nM biot-hTNFα together with a titration series of the variants in the different GI fluids was added. Detection was performed with extravidin-HRP.
biot-hTNFα, sequence (P01375 77-233 limits assumed): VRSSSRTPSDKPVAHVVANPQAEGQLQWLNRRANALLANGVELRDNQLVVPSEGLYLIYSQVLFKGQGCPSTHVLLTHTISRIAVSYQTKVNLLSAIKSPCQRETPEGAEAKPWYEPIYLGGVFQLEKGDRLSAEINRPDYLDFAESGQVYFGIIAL

The target in assay [1] is membrane bound human TNF (mTNF), human TNF R77T/S78T variant on HEK293H-mTNF cells (human) (UniProt P01375). Nature of the assay: competition FACS on HEK293H-mTNF cells, competitor Enbrel at EC30 (0.02 nM).
membrane bound human TNF (mTNF), human TNF R77T/S78T variant on HEK293H-mTNF cells (human), sequence (P01375 whole entry, stated change not applied): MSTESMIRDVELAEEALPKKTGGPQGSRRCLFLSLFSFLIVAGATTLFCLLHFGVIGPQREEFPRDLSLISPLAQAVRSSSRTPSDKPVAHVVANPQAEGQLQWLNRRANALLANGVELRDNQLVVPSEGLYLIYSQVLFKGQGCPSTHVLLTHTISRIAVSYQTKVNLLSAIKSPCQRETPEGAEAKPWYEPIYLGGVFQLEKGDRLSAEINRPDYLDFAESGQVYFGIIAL
The target is the same in assay [2]. Nature of the assay: competition FACS on HEK293H-mTNF cells, competitor Enbrel at EC90 (0.2 nM).

Where a chain is given by its changes, count along the chain named. Names and notes keep the numbering of the source.

B1: A016600021 (VHH)
VHH: DVQLVESGGGVVQPGGSLRLSCTASGFTFSTADMGWFRQAPGKGREFVARISGIDGTTYYDEPVKGRFTISRDNSKNTVYLQMNSLRPEDTALYYCRSPRYADQWSAYDYWGQGTLVTVSS
Regarding B1, the IC50 was 0.67 nM with biot-hTNFα, 0.43 nM in assay [1] and 0.65 nM in assay [2].

B2: A016600038 (VHH)
VHH: B1 VHH with S75A
In the case of B2, the IC50 in assay [1] amounted to 0.43 nM; in assay [2], 0.7 nM.

B3: A016600045 (VHH)
VHH: B1 VHH with Y108H
As to B3, the IC50 in assay [1] stood at 0.54 nM; in assay [2], 0.76 nM.

B4: A016600046 (VHH)
VHH: B1 VHH with Y108L
notes: Y100dL substitution in CDR3; also called A016600046 100dL; A016600046 Y100dL
On to B4, for which, in the assay with biot-hTNFα, the IC50 amounted to 1.13 nM and the “fold increase of IC50 compared to 00021” value is 2 to 5 fold.

B5: A016600052 (VHH)
VHH: B1 VHH with A49C, I70C, Y108L
notes: S49C, I69C (intradomain disulfide) and Y100dL
As to B5, in the assay with biot-hTNFα, the IC50 was 3.56 nM and the “fold increase of IC50 compared to 00021” value was 2 to 5 fold.
